B1: recombinant human GDF-5 wild type (ligand)
chain: APLATRQGKRPSKNLKARCSRKALHVNFKDMGWDDWIIAPLEYEAFHCEGLCEFPLRSHLEPTNHAVIQTLMNSMDPESTPPTACVPTRLSPISILFIDSANNVVYKQYEDMVVESCGCR
B2: recombinant human GDF-5 mutant W414R (ligand)
chain: B1 chain with W33R, A84C
B3: recombinant human GDF-5 mutant R399E (ligand)
chain: B1 chain with R18E, A84C
B4: human GDF-5 mutant R438K (ligand)
chain: B1 chain with R57K, A84C
B5: human GDF-5 mutant S439K (ligand)
chain: B1 chain with S58K, A84C
B6: recombinant human GDF-5 mutant R399M (ligand)
chain: B1 chain with R18M, A84C
B7: human GDF-5 mutant M412V (ligand)
chain: B1 chain with M31V, A84C
B8: human GDF-5 mutant W417F (ligand)
chain: B1 chain with W36F, A84C
B9: recombinant human GDF-5 mutant S439E (ligand)
chain: B1 chain with S58E, A84C
B10: human GDF-5 mutant W417R (ligand)
chain: B1 chain with W36R, A84C
B11: recombinant human GDF-5 mutant I449V (ligand)
chain: B1 chain with I68V, A84C

Substitutions are numbered along the chain they refer to. Names and notes keep the numbering of the source.

The first assay deals with Fc-fusion protein receptor ectodomain of BMPR-IB. Briefly: SPR (Biacore T100), receptor ectodomain-Fc on protein G chip, kinetic 1:1 fit; measurement 1.
Consider B1, for which the Kd worked out at 0.008 nM.

For B2, the dissociation constant Kd stood at 0.03 nM.

Take B3: the equilibrium dissociation constant (Kd) is 0.172 nM.

Regarding B4, the equilibrium dissociation constant (Kd) came out at 0.045 nM.

In the case of B5, the equilibrium dissociation constant (Kd) worked out at 0.01 nM.

As for B6, the dissociation constant Kd worked out at 0.0025 nM.

The target of another assay is Fc-fusion protein receptor ectodomain of BMPR-IA. Described as above.
Turning to B1, the Kd turned out to be 1 nM.

In turn, B2 yielded a Kd of 20.3 nM.

B3 showed a Kd of 22.5 nM.

The molecule B4 displayed a Kd of 32.5 nM.

Turning to B5, the dissociation constant Kd is 43.4 nM.

In turn, B6 gave a dissociation constant Kd of 0.54 nM.

In the next assay the target is Fc-fusion protein receptor ectodomain of BMPR-IB. Kind of assay: ratio of Biacore KDs, BMPR-IA as reference; measurement 2.
Turning to B1, the fold higher IB affinity over IA, KD(IA): KD(IB) worked out at 40 fold.

As to B7, the fold higher IB affinity over IA, KD(IA): KD(IB) is 333 fold.

With B8, the fold higher IB affinity over IA, KD(IA): KD(IB) turned out to be 587 fold.

For B9, the fold higher IB affinity over IA, KD(IA): KD(IB) was found to be 581 fold.

As to B10, the fold higher IB affinity over IA, KD(IA): KD(IB) is 2650 fold.

Consider B11, for which the fold higher IB affinity over IA, KD(IA): KD(IB) came out at 219 fold.

The target is the same in a further assay. Kind of assay: SPR (Biacore T100), receptor ectodomain-Fc on protein G chip, kinetic 1:1 fit; measurement 2.
In the case of B1, the Kd came out at 0.027 nM.

B7 showed a Kd of 0.039 nM.

B8 returned a Kd of 0.046 nM.

Molecule B9 had a Kd of 0.043 nM.

Regarding B10, the Kd amounted to 0.037 nM.

Regarding B11, the Kd was found to be 0.026 nM.

The target of another assay is Fc-fusion protein receptor ectodomain of BMPR-IA. The assay is described as above.
Take B1: the Kd is 1.1 nM.

B7 gave an equilibrium dissociation constant (Kd) of 13 nM.

B8: the Kd worked out at 27 nM.

In turn, B9 yielded a Kd of 25 nM.

For the molecule B10, the Kd stood at 98 nM.

For the molecule B11, the Kd worked out at 5.7 nM.

The target of the next assay is Fc-fusion protein receptor ectodomain of BMPR-IB. Briefly: ratio of Biacore KDs, BMPR-IA as reference; measurement 1.
As for B1, the fold higher IB affinity over IA, KD(IA): KD(IB) turned out to be 122 fold.

For the molecule B2, the fold higher IB affinity over IA, KD(IA): KD(IB) stood at 668 fold.

Turning to B3, the fold higher IB affinity over IA, KD(IA): KD(IB) was 130 fold.

For B4, the fold higher IB affinity over IA, KD(IA): KD(IB) worked out at 717 fold.

As to B5, the fold higher IB affinity over IA, KD(IA): KD(IB) is 2400 fold.

On to B6, for which the fold higher IB affinity over IA, KD(IA): KD(IB) stood at 216 fold.

The next assay has as its target Fc-fusion protein receptor ectodomain of BMPR-II. Kind of assay: SPR (Biacore T100), receptor ectodomain-Fc on protein G chip, equilibrium binding (KD eq).
The molecule B1 displayed a Kd of 32 nM.

B3 yielded an equilibrium dissociation constant (Kd) of 32 nM.

B4 came in with a Kd of 32 nM.

Regarding B5, the dissociation constant Kd is 10 nM.

In turn, B6 displayed a Kd of 32 nM.

The target in a further assay is Fc-fusion protein receptor ectodomain of BMPR-IB. Kind of assay: ratio KD(IA):KD(IB) from Biacore, relative to wild type.
Consider B1, for which the fold higher IB affinity over IA compared to WT was 1 fold.

Take B7: the fold higher IB affinity over IA compared to WT is 8.3 fold.

Turning to B2, the fold higher IB affinity over IA compared to WT came to 5.5 fold.

Consider B3, for which the fold higher IB affinity over IA compared to WT was 1.1 fold.

Consider B8, for which the fold higher IB affinity over IA compared to WT stood at 14.7 fold.

Take B4: the fold higher IB affinity over IA compared to WT was 5.9 fold.

With B9, the fold higher IB affinity over IA compared to WT came out at 14.5 fold.

For the molecule B5, the fold higher IB affinity over IA compared to WT stood at 19.7 fold.

In the case of B6, the fold higher IB affinity over IA compared to WT was 1.8 fold.

Take B10: the fold higher IB affinity over IA compared to WT amounted to 56.2 fold.

With B11, the fold higher IB affinity over IA compared to WT came to 5.5 fold.

For the origin of these results see patent US20140369978A1.
